# According to US20260250420A1 (SICHUAN KELUN BIOTECH BIOPHARMACEUTICAL, published 2026):
# T1: human PTK7 protein (extracellular sequence of human PTK7 with C-terminal 6×His tag) (human, UniProt Q13308 31-704)
# T1 construct: extracellular domain; Expressed transiently in HEK293 cells; also called human PTK7-His; human PTK7-His protein
# T1 sequence: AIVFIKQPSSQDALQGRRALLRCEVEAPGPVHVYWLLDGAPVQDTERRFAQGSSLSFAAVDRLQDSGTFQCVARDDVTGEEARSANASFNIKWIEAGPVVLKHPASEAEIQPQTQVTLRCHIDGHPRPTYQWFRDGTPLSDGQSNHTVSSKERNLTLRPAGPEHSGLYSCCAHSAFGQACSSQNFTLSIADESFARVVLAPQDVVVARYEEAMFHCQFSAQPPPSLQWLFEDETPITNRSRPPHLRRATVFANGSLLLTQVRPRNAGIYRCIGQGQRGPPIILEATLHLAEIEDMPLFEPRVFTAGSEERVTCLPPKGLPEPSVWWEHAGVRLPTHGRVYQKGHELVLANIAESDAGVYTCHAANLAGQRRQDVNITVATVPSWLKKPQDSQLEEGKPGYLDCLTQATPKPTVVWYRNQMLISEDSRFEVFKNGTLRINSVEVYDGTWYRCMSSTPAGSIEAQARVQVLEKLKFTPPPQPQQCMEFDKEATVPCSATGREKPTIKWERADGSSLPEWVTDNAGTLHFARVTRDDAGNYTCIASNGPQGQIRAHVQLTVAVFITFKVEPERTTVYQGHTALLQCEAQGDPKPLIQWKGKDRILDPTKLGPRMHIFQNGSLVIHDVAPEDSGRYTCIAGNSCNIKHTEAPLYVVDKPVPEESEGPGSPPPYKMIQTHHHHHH
# T2: human PTK7 on cells (tumor cells endogenously expressing PTK7); CHO-hPTK7, CHO-S-hPTK7 and 293T-hPTK7 … (human, UniProt Q13308 31-1070)
# T2 construct: whole, on cells; The cell line of each value is named under assay; also called H1299; H358
# T2 sequence (looked up): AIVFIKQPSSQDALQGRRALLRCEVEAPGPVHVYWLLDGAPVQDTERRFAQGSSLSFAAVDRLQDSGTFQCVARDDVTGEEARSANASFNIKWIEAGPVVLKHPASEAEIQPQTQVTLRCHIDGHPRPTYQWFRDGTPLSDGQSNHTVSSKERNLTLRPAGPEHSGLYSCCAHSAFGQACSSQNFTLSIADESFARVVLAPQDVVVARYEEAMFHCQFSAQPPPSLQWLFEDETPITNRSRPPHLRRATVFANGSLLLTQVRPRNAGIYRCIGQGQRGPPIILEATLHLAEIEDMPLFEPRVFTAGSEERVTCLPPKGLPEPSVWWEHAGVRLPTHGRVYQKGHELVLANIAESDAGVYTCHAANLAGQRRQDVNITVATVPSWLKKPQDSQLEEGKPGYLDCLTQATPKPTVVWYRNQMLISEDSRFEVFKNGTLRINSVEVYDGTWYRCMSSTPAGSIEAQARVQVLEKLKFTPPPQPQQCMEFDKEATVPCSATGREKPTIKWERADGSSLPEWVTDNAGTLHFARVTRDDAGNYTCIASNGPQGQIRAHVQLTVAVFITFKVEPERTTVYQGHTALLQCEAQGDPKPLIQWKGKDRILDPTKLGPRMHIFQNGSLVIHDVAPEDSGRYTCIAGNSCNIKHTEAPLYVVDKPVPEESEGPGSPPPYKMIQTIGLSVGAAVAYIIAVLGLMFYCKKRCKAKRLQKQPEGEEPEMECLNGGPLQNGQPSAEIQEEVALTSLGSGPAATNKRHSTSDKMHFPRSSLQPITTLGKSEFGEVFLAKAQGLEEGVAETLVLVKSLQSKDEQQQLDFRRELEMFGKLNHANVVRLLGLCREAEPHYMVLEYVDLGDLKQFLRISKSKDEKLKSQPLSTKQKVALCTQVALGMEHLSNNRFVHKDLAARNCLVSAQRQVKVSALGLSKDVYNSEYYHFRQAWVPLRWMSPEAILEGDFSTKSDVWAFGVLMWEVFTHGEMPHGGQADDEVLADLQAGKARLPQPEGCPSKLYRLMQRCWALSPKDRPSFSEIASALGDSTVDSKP
# Assays:
# [1] = molecular target: T1, human PTK7 protein (extracellular …); test: competition ELISA on coated human PTK7 protein; competitor: biotin-labelled 64A10HZ at a fixed concentration
# Experimental: (§1) The human PTK7 protein was diluted to reach 1 μg/ml by using the CBS coating liquid, coated by a 96-well microtiter plate at a density of 100 μl/well, and stood overnight at 4° C.; and after the plate was washed and blocked, the biotin-labeled antibody and the to-be-detected antibody were added, and incubated for 2 h at room temperature. After the plate was washed, the secondary antibody was added for incubation, and finally was subjected to color development, then the reaction was terminated, and the absorbance at OD₄₅₀ nm was read by the microplate reader. The original data was imported into software for nonlinear curve fitting (four parameters).
# [2] = molecular target: T2, human PTK7 on cells (tumor cells …); test: competition flow cytometry on 293T-hPTK7 cells, streptavidin-PE; competitor: biotin-labelled 64A10HZ
# [3] = molecular target: T1, human PTK7 protein (extracellular …); test: competition ELISA on coated human PTK7 protein; competitor: biotin-labelled 101A6HZ at a fixed concentration
# Experimental: as §1
# [4] = molecular target: T2, human PTK7 on cells (tumor cells …); test: competition flow cytometry on 293T-hPTK7 cells, streptavidin-PE; competitor: biotin-labelled 101A6HZ
# [5] = molecular target: T2, human PTK7 on cells (tumor cells …); test: flow cytometry on H1299 cells endogenously expressing PTK7
# [6] = molecular target: T2, human PTK7 on cells (tumor cells …); test: cell-based or functional assay
# [7] = molecular target: T2, human PTK7 on cells (tumor cells …); test: competition flow cytometry on 293T-hPTK7 cells, streptavidin-PE; competitor: biotin-labelled Hu24
binder,measurement,setting,value
"64A10HZ (anti-human PTK7 humanized antibody) (antibody, human IgG1, kappa, V domains shown, Human IgG1 heavy chain constant region and human Kappa light chain constant region; expressed in CHO-S cells) VH: QVQLQESGPGLVKPSETLSLTCTVSGFSLTSYGVYWVRQPPGKGPEWLGVIWTSGNTNYNPSLKSRLTISKDNSKNQVSLKLSSVTAADTAVYYCVKHDGGNYVGVMNYWGQGTLVTVSS VL: EIVMTQSPDFQSVTPKEKVTITCRASQSISDYLHWYQQKPDQSPKLLIKYASQSISGVPSRFSGSGSGSDFTLTINSLEAEDAATYYCQNGHSFPPTFGQGTKLEIKR",IC50 (read off the curve),[1],~0.2 µg/mL
same,IC50 (read off the curve),[2],~0.3 µg/mL
"101A6HZ (anti-human PTK7 humanized antibody) (antibody, human IgG1, kappa) heavy: not shown light: DIVMTQSPDSLAVSLGERATINCKASQDVGSAVIWYQQKPGQSPKLLIYWASTRHTGVPDRFSGSGSGTDFTLTISSLQAEDVAVYYCQQYSSYPLTFGQGTKLEIKRTVAAPSVFIFPPSDEQLKSGTASVVCLLNNFYPREAKVQWKVDNALQSGNSQESVTEQDSKDSTYSLSSTLTLSKADYEKHKVYACEVTHQGLSSPVTKSFNRGEC",IC50 (read off the curve),[3],~0.08 µg/mL
same,IC50 (read off the curve),[4],~1 µg/mL
"Hu24 (PTK7 control antibody, taken from Hu24 in the Patent CN201580030255) (antibody) chain 1: QVQLVQSGPEVKKPGASVKVSCKASGYTFTDYAVHWVRQAPGKRLEWIGVISTYNDYTYNNQDFKGRVTMTRDTSASTAYMELSRLRSEDTAVYYCARGNSYFYALDYWGQGTSVTVSS chain 2: EIVLTQSPATLSLSPGERATLSCRASESVDSYGKSFMHWYQQKPGQAPRLLIYRASNLESGIPARFSGSGSGTDFTLTISSLEPEDFAVYYCQQSNEDPWTFGGGTKLEIK",EC50,[5],0.293 µg/mL
same,"Cell endocytosis, EC50, A431 cells",[6],0.0743 µg/mL
same,"Cell endocytosis, EC50, HCC1806 cells",[6],0.0659 µg/mL
same,"Cell endocytosis, EC50, NCI-H358 cells",[6],0.0708 µg/mL
same,"Cell endocytosis, EC50, OVCAR3 cells",[6],0.101 µg/mL
same,IC50 (read off the curve),[7],~0.3 µg/mL
